Measured values from article PMC8263772 (2021).

Biological target: SARS-CoV-2 spike (S) protein receptor binding domain (RBD), wild type (SARS-CoV-2, UniProt P0DTC2)
Experiment: SPR

B1: dog angiotensin-converting enzyme 2 (dACE2) ectodomain, 6xHis (receptor)
chain: MQSTEDLVKTFLEKFNYEAEELSYQSSLASWNYNINITDENVQKMNNAGAKWSAFYEEQSKLAKTYPLEEIQDSTVKRQLRALQHSGSSVLSADKNQRLNTILNSMSTIYSTGKACNPSNPQECLLLEPGLDDIMENSKDYNERLWAWEGWRSEVGKQLRPLYEEYVALKNEMARANNYEDYGDYWRGDYEEEWENGYNYSRNQLIDDVEHTFTQIMPLYQHLHAYVRTKLMDTYPSYISPTGCLPAHLLGDMWGRFWTNLYPLTVPFGQKPNIDVTNAMVNQSWDARKIFKEAEKFFVSVGLPNMTQEFWENSMLTEPSDSRKVVCHPTAWDLGKGDFRIKMCTKVTMDDFLTAHHEMGHIQYDMAYAAQPFLLRNGANEGFHEAVGEIMSLSAATPNHLKNIGLLPPSFFEDSETEINFLLKQALTIVGTLPFTYMLEKWRWMVFKGEIPKDQWMKTWWEMKRNIVGVVEPVPHDETYCDPASLFHVANDYSFIRYYTRTIYQFQFQEALCQIAKHEGPLHKCDISNSSEAGQKLLEMLKLGKSKPWTYALEIVVGAKNMDVRPLLNYFEPLFTWLKEQNRNSFVGWNTDWSPYADQSIKVRISLKSALGEKAYEWNNNEMYLFRSSIAYAMRQYFSEVKNQTIPFVEDNVWVSDLKPRISFNFFVTSPGNVSDIIPRTEVEEAIRMYRSRINDVFRLDDNSLEFLGIQPTLGPPYEPPVT
B1 gave a koff of 0.0139 s⁻¹.
